{"source": "patent US20140005119A1", "about": "“COMPOSITIONS AND METHODS FOR INHIBITING THE ACTIVITY OF P110a MUTANT PROTEINS” (Case Western Reserve University, priority 2012, published 2014)", "molecular_target": "T1, interaction between p110α E545K and IRS1 (Homo sapiens, UniProt P35568)", "T1 construct": "In KI DLD1 cells, IRS1 was co-immunoprecipitated with p110α E545K but not the WT p110α; endogenous in cells; host or cells: DLD1 p110α E545K 3×FLAG knock-in cells (rAAV gene targeting of the endogenous allele)", "T1 sequence (P35568 1-1242)": "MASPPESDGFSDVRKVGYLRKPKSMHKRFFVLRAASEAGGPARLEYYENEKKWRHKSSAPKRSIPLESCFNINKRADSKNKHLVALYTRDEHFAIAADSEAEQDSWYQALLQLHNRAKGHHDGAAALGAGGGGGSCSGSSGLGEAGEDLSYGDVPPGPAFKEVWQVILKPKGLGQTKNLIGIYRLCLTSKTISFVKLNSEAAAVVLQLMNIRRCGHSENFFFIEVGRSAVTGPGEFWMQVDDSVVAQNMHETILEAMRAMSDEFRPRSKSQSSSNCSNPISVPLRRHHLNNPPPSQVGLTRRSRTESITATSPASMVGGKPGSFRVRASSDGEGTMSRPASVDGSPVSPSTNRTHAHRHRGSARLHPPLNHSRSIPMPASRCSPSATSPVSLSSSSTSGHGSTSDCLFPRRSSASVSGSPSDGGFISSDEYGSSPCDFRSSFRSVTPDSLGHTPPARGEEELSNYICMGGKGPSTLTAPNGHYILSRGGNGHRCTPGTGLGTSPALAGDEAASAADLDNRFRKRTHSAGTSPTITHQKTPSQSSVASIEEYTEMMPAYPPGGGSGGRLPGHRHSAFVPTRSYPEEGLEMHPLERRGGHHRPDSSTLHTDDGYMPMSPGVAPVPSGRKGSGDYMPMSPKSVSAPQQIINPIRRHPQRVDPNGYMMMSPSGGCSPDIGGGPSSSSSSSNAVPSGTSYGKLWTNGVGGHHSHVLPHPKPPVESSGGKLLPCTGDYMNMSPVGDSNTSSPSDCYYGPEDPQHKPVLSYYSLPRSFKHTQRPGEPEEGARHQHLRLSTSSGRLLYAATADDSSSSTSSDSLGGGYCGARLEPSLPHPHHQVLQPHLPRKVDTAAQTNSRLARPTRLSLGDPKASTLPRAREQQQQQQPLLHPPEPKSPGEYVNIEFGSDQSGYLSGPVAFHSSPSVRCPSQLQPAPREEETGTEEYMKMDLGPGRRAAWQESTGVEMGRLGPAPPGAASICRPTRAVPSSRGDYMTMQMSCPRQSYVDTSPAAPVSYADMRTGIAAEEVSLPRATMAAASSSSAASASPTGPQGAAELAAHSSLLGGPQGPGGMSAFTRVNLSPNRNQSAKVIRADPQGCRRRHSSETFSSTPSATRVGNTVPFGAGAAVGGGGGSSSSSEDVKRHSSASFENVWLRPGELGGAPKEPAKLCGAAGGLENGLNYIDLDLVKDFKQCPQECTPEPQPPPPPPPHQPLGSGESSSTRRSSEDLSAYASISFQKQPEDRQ", "experiment": "Peptide competition assay in cell lysates (anti-FLAG immunoprecipitation, anti-IRS1 blot)", "type": "binding", "conditions": "peptide added into cell lysates of p110α E545K 3×FLAG KI cells", "procedure": "FIGS. 3(A-M) illustrate: (A, B) Mapping peptides (P3, SEQ ID NO: 1; P4 SEQ ID NO: 2; P5, SEQ ID NO: 3; P6, SEQ ID NO: 4) derived from mutant p110α that inhibit interaction between IRS1 and p110α E545K. The indicated peptides were added into cell lysates made from the p110α E545K 3×FLAG KI cells. Cell lysates were immunoprecipitated with beads conjugated with anti-FLAG antibodies and then blotted with anti-IRS1 antibodies. (C) Immunoblots of cell lysates made from the p110α E545K 3×FLAG KI cells. Cell lysates were immunoprecipitated with beads conjugated with anti-FLAG antibodies and then blotted with the indicated antibodies. (D) Immunoblots of cell lysate of Myc-tagged IRS1 plasmid, which co-transfected an ABD domain deletion construct of the FLAG-tagged p110α E545K mutant (ΔABD), incubated with the indicated amount of stapled p110α mutant peptides, and then immunoprecipitated with anti-FLAG antibodies and blotted with the indicated antibodies. (J, K) Immunoblot and graph of purified recombinant p110α E545K mutant proteins mixed with the indicated components and quantified using an in vitro lipid kinase assay. (L, M) Immunoblots of the indicated cell lines serum-starved, stimulated with 1 μg/ml insulin for 30 min, and then treated with or without the indicated peptides. Cell lysates were blotted with the indicated antibodies. All error bars show mean±SEM. *p<0.05, **p<0.001, t test.\nFor Co-immunoprecipitation (Co-IP), cells were harvested, washed with PBS, and then lysed in IP buffer (50 mMTris [pH 7.4], 150 mMNaCl, 5 mMEDTA [pH 8.0], 0.5% NP40, 1 mM PMSF, complete Protease Inhibitor Cocktail tablet [Roche]; supplemented with phosphatase inhibitors [1 mM Na3VO4, 20 mM NaF, 0.1 mM b-glycerophosphate, 20 mM sodium pyrophosphate] when necessary). For immunoblotting (IB) of phospho-specific proteins, unless stated otherwise, cells were lysed in urea buffer (100 mM NaH2PO4, 10 mM Tris-HCl, 8 M Urea, 1 mM Na3VO4, 20 mM NaF, 0.1 mM β-glycerophosphate, 20 mM sodium pyrophosphate, supplemented with complete Protease Inhibitor Cocktail tablet [Roche], pH 8.0). Lysates were then cleared by centrifugation (14,000 rpm, 10 min) and protein concentration in supernatants was determined with a BCA protein assay kit (Pierce, Rockford, Ill.). Equal amounts of total protein were used for IP or IB.\nFor in vitro peptide competition assay, the p110α mutant-FLAG-tagged cells were grown to 90% confluency, serum-starved overnight, and lysed as described previously. Peptides were then added to the cell lysates, incubated for 30 min at 4° C. and followed by immunoprecipitation assay.", "note": "Bridges are numbered along the chain shown (N, C = ends). Where no end group is shown, it is not given here. [ ]: non-standard residue; d: D form. S5 = C=CCCC[C@](C)(N)C(=O)O", "data": [{"substance": "H2N-SEITEQEKD^549-FLW-S^553-HRHYC-COOH (SEITEQEK[S5]FLW[S5]HRHYC; staple 9-13; not fully specified (N-terminus, C-terminus); printed as H2N-SEITEQEKD549-FLW-S553-HRHYC-COOH; listed as Homo sapiens) [stapled WT peptide, stapled wild-type p110α counterpart of the stapled mutant peptide, used as control, reference compound]", "values": [{"measurement": "inhibition of the interaction between p110α E545K and IRS1", "result": "did not inhibit"}]}, {"substance": "H2N-SEITKQEK-D^549-FLW-S^553-HRHYC-COOH [stapled mutant peptide]", "values": [{"measurement": "inhibition of the interaction between p110α E545K and IRS1", "result": "almost completely disrupted"}, {"measurement": "inhibition of the interaction between p110α E545K and IRS1", "setting": "listed as stapled polypeptide substantially homologous to the C-terminal α-helical motif o", "result": "disrupted"}]}]}
